According to patent US20230057987A1 (published 2023):
Where “and” joins values, the source holds several entries; their conditions need not be identical. Equal values may be shown once.

T1: CT45-IP alanine variant, position 8 peptide on HLA-A*02:01 (human)
T1 peptide: KIFEMLEAV

T2: similar peptide SP-05-0004, source protein not stated peptide on HLA-A*02:01 (human)
T2 peptide: KIWEWLVGV

T3: similar peptide SP-05-0002, source protein not stated peptide on HLA-A*02:01 (human)
T3 peptide: KIFSGLLKV

T4: CT45-IP alanine variant, position 5 peptide on HLA-A*02:01 (human)
T4 peptide: KIFEALEGV

T5: similar peptide SP-05-0008, source protein not stated peptide on HLA-A*02:01 (human)
T5 peptide: KILDELEKV

T6: similar peptide SP-05-0006, source protein not stated peptide on HLA-A*02:01 (human)
T6 peptide: KIAELLENV

T7: similar peptide SP-05-0001, source protein not stated peptide on HLA-A*02:01 (human)
T7 peptide: HIMEHLEGV

T8: similar peptide SP-05-0007, source protein not stated peptide on HLA-A*02:01 (human)
T8 peptide: KIFPALCTV

T9: similar peptide SP-05-0010, source protein not stated peptide on HLA-A*02:01 (human)
T9 peptide: RIFETVNSV

T10: CT45-IP alanine variant, position 1 peptide on HLA-A*02:01 (human)
T10 peptide: AIFEMLEGV

T11: similar peptide SP-05-0003, source protein not stated peptide on HLA-A*02:01 (human)
T11 peptide: KVTEMLVNV

T12: similar peptide SP-05-0009, source protein not stated peptide on HLA-A*02:01 (human)
T12 peptide: KIIDLLPKV

T13: similar peptide SP-05-0005, source protein not stated peptide on HLA-A*02:01 (human)
T13 peptide: KIEEFLEAV

T14: CT45 (CT45A1, A2, A3, A5 to A10); CT45-IP peptide on HLA-A*02:01 (human)
T14 peptide: KIFEMLEGV

T15: CT45-IP alanine variant, position 3 peptide on HLA-A*02:01 (human)
T15 peptide: KIAEMLEGV

T16: CT45-IP alanine variant, position 7 peptide on HLA-A*02:01 (human)
T16 peptide: KIFEMLAGV

T17: CT45-IP alanine variant, position 4 peptide on HLA-A*02:01 (human)
T17 peptide: KIFAMLEGV


Legend:
[1] = target: CT45-IP-HLA-A*02 dextramer (human); experiment: flow cytometry, dextramer staining of TCR-mRNA electroporated T cells, gated on CD3+
[2] = target: T1, CT45-IP alanine variant, position 8 …; experiment: killing
[3] = target: T2, similar peptide SP-05-0004, source …; experiment: killing
[4] = target: T3, similar peptide SP-05-0002, source …; experiment: killing
[5] = target: T4, CT45-IP alanine variant, position 5 …; experiment: killing
[6] = target: T5, similar peptide SP-05-0008, source …; experiment: killing
[7] = target: T6, similar peptide SP-05-0006, source …; experiment: killing
[8] = target: T7, similar peptide SP-05-0001, source …; experiment: killing
[9] = target: T8, similar peptide SP-05-0007, source …; experiment: killing
[10] = target: T9, similar peptide SP-05-0010, source …; experiment: killing
[11] = target: T10, CT45-IP alanine variant, position 1 …; experiment: killing
[12] = target: T11, similar peptide SP-05-0003, source …; experiment: killing
[13] = target: T12, similar peptide SP-05-0009, source …; experiment: killing
[14] = target: T13, similar peptide SP-05-0005, source …; experiment: killing
[15] = target: T14, CT45 (CT45A1, A2, A3, A5 to A10); …; experiment: luciferase release, 24 h, 1:1; CD8+ T cells with TCR mRNA, T2 cells with titrated peptide; full-length, on cells
[16] = target: CT45-IP antigenic peptide (…) in complex with HLA-A*02 presented on cells (peptide-loaded T2 cells; NCIH1703 and A375 tumor cells) (human); experiment: cell-based or functional assay
[17] = target: T14, CT45 (CT45A1, A2, A3, A5 to A10); …; experiment: CT45-IP-HLA-A*02 dextramer on T cells with TCR mRNA; TCR found by tetramer sorting; full-length, on cells
[18] = target: T15, CT45-IP alanine variant, position 3 …; experiment: killing
[19] = target: T16, CT45-IP alanine variant, position 7 …; experiment: killing
[20] = target: T17, CT45-IP alanine variant, position 4 …; experiment: killing

Binder | surface expression, % positive events by CT45-IP-HLA-A2*02 dextramer staining [1] | EC50 of peptide [15] [nM] | dextramer-positive events [17] [%] | binding result [2] | binding result [3] | binding result [4] | binding result [5] | binding result [6] | binding result [7] | binding result [8] | binding result [9] | binding result [10] | binding result [11] | binding result [12] | binding result [13] | binding result [14] | EC50, half maximal killing capacity (functional avidity; CT45-IP peptide titration on T2 cells, luciferase release) [16] [nM] | binding result [18] | binding result [19] | binding result [20]
TCR-7 (TCR, V domains shown) Valpha: QTVTQSQPEMSVQEAETVTLSCTYDTSESDYYLFWYKQPPSRQMILVIRQEAYKQQNATENRFSVNFQKAAKSFSLKISDSQLGDAAMYFCTFRYGGATNKLIFGTGTLLAVQP Vbeta: GVIQSPRHLIKEKRETATLKCYPIPRHDTVYWYQQGPGQDPQFLISFYEKMQSDKGSIPDRFSAQQFSDYHSELNMSSLELGDSALYFCASRGGWAETPDTQYFGPGTRLTVL | 53.3% | 0.48 | 53.3 | recognises | no recognition | no recognition | recognises | no recognition | no recognition | no recognition | no recognition | no recognition | – | no recognition | no recognition | no recognition | 0.48 | recognises | – | –
TCR-6 (TCR, V domains shown) Valpha: QKEVEQDPGPLSVPEGAIVSLNCTYSNSAFQYFMWYRQYSRKGPELLMYTYSSGNKEDGRFTAQVDKSSKYISLFIRDSQPSDSATYLCAMSGNSGARDYGNNRLAFGKGNQVVVIP Vbeta: EVTQTPKHLVMGMTNKKSLKCEQHMGHRAMYWYKQKAKKPPELMFVYSYEKLSINESVPSRFSPECPNSSLLNLHLHALQPEDSALYLCASATWEEAGPYNEQFFGPGTRLTVL | 2.9% | 3.25 | 2.9 | recognises | – | no recognition | recognises | no recognition | no recognition | no recognition | no recognition | no recognition | – | no recognition | no recognition | no recognition | 3.25 | – | recognises | –
TCR-5 (TCR, V domains shown) Valpha: QQLNQSPQSMFIQEGEDVSMNCTSSSIFNTWLWYKQDPGEGPVLLIALYKAGELTSNGRLTAQFGITRKDSFLNISASIPSDVGIYFCAGGYNYGQNFVFGPGTRLSVLP Vbeta: GVTQTPKHLITATGQRVTLRCSPRSGDLSVYWYQQSLDQGLQFLIQYYNGEERAKGNILERFSAQQFPDLHSELNLSSLELGDSALYFCASSAGLAGGYEQYFGPGTRLTVT | 55.5% and 61.1% | 1.32 | 61.1 | – | no recognition | no recognition | recognises | no recognition | no recognition | no recognition | no recognition | no recognition | recognises | no recognition | no recognition | no recognition | 1.32 | – | – | recognises
TCR-11 (TCR, V domains shown) Valpha: IQVEQSPPDLILQEGANSTLRCNFSDSVNNLQWFHQNPWGQLINLFYIPSGTKQNGRLSATTVATERYSLLYISSSQTTDSGVYFCAVNTGTASKLTFGTGTRLQVTL Vbeta: GVTQTPKFQVLKTGQSMTLQCAQDMNHNSMYWYRQDPGMGLRLIYYSASEGTTDKGEVPNGYNVSRLNKREFSLRLESAAPSQTSVYFCASSPRGQGRSYEQYFGPGTRLTVT | 0.53% and 6.6% | 59.5 | 6.6 | – | no recognition | no recognition | – | no recognition | no recognition | no recognition | no recognition | no recognition | – | no recognition | no recognition | no recognition | 59.5 | – | recognises | –

More lines, main results first:

surface expression, % positive events by CT45-IP-HLA-A2*02 dextramer staining [1] | EC50 of peptide [15] [nM] | dextramer-positive events [17] [%] | Binder | binding result [2] | binding result [3] | binding result [4] | binding result [5] | binding result [6] | binding result [7] | binding result [8] | binding result [9] | binding result [10] | binding result [11] | binding result [12] | binding result [13] | binding result [14] | EC50, half maximal killing capacity (functional avidity; CT45-IP peptide titration on T2 cells, luciferase release) [16] [nM] | binding result [18] | binding result [19] | binding result [20]
20.1% | 47.5 | 20.1 | TCR-12 (TCR, V domains shown) Valpha: QLLEQSPQFLSIQEGENLTVYCNSSSVFSSLQWYRQEPGEGPVLLVTVVTGGEVKKLKRLTFQFGDARKDSSLHITAAQPGDTGLYLCAGGLSDSYDKVIFGPGTSLSVIP Vbeta: EVTQTPKHLVMGMTNKKSLKCEQHMGHRAMYWYKQKAKKPPELMFVYSYEKLSINESVPSRFSPECPNSSLLNLHLHALQPEDSALYLCASSQGVGQEYGYTFGSGTRLTVV | recognises | no recognition | no recognition | recognises | no recognition | no recognition | no recognition | no recognition | no recognition | recognises | no recognition | no recognition | no recognition | 47.5 | – | – | –
52.8% | 8.75 | 52.8 | TCR-10 (TCR, V domains shown) Valpha: QNIDQPTEMTATEGAIVQINCTYQTSGFNGLFWYQQHAGEAPTFLSYNVLDGLEEKGRFSSFLSRSKGYSYLLLKELQMKDSASYLCAVPAPYTGTASKLTFGTGTRLQVTL Vbeta: GVTQTPKFQVLKTGQSMTLQCAQDMNHNSMYWYRQDPGMGLRLIYYSASEGTTDKGEVPNGYNVSRLNKREFSLRLESAAPSQTSVYFCASSEGYSTYNEQFFGPGTRLTVL | recognises | no recognition | no recognition | – | no recognition | no recognition | no recognition | no recognition | no recognition | recognises | no recognition | no recognition | no recognition | 8.75 | recognises | – | recognises
